Target: T1, Bal gp120-CD4 (HIV-1 (Bal isolate))
T1 construct: domain: gp120;domain: two-domain CD4; also called gp120Bal-CD4; panning antigen; not shown: junction or linker between gp120 and CD4 is not described
Test: ELISA, antigen coated, purified refolded nAb, anti-His-HRP

B1: m1a1 (designed binder)
chain: APELLGGPSVFLFPPKPKDTLMISRTPEVTCVVVDYDYDSYFDFGKFNWYVDGVEVHNAKTKPREEQYNSTYRVVSVLTVLHQDWLNGKEYKCKVSNSDSAASGPIEKTISKAK
notes: also called CH2 clone m1a1; nAb m1a1; not shown: C-terminal His tag used for detection
EC50: 500 nM

B2: m1a2 (designed binder)
chain: APELLGGPSVFLFPPKPKDTLMISRTPEVTCVVVDYDYDSYYDGKFNWYVDGVEVHNAKTKPREEQYNSTYRVVSVLTVLHQDWLNGKEYKCKVSNDDYAADGPIEKTISKAK
notes: also called CH2 clone m1a2; nAb m1a2; not shown: C-terminal His tag used for detection
EC50: 500 nM
